Laboratory results as given in article PMC9993738.

B1: SpS1-C1 (ssDNA)
DNA: GAACATTGGCGTCCGTGAGTGAGACCATAGTCCAGCGAACTAAACCTACCCTAAAGGGCAAGGAAGACGGGCACTTCCTCAAACGCCCAA
B2: SpS1-C4 (ssDNA)
DNA: GAACATTGGCGTCCGTGAGCAGCTCGTGGTTGTTTGCTTGTATACTTTTGTGGTTTATCTTGTTTCTGATCACTTCCTCAAACGCCCAA

Target: SARS-CoV-2 spike S1 subunit (SARS-CoV-2, UniProt P0DTC2 14-685)
Test: bead-based fluorescence

Row | Binder | binding result
1 | B1 | binds
2 | B2 | binds
